Data from publication PMC4020580.

Target: bovine trypsin (bovine)

**Q.** For “labeled single-Cys S313C α1AT (natural protein)”, which stoichiometry of inhibition (SI) of bovine trypsin is on record?
**A.** Its stoichiometry of inhibition (SI) of bovine trypsin is 1.1.

**Q.** “labeled single-Cys S47C α1AT (natural protein)” was tested. Which stoichiometry of inhibition (SI) of bovine trypsin did it give?
**A.** Its stoichiometry of inhibition (SI) of bovine trypsin is 1.1.

**Q.** With “α1AT Ser313Cys double-Cys variant (2Cys313), unlabeled (natural protein)” as the substance, how does the stoichiometry of inhibition (SI) of bovine trypsin read?
**A.** The stoichiometry of inhibition (SI) of bovine trypsin was 1.1.
